Reference: patent US20230340142A1 (SUZHOU NEOLOGICS BIOSCIENCE, published 2023)

Each binder was assayed against T1, human PD-L1 (human, UniProt Q9NZQ7 19-238, limits assumed) (assay: Octet-96 BLI; antigen not named, taken as human PD-L1).
T1 construct: also called hPD-L1
T1 sequence (Q9NZQ7 19-238 limits assumed): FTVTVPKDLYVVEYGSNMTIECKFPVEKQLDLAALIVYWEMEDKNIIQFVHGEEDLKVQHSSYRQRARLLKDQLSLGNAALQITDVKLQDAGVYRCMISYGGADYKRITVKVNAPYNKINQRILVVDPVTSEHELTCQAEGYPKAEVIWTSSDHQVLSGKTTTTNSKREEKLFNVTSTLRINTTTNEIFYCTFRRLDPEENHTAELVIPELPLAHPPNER

Binder | Kd [nM]
DhVH2/DhVL2 (antibody, V domains shown, Humanized Clone D; constant regions from the vector, 293F cells; also called humanized Clone D, Dh VH2 + Dh VL2) VH: QVQLVQSGAEVKKPGASVKVSCKASGYSFTGYTMNWVKQAHGQGLEWMGLIIPYNGGISYNQKFKDRVTMTVDTSISTAYMELSRLRSDDTAVYYCASLITTAPRDSMDYWGQGTLVTVSS VL: DIQMTQSPSSLSASVGDRVTITCRASQDISNYLNWYQQKPGKAPKLLIYYTSKLHSGVPSRFSGSGSGTDFTLTISSLQPEDIATYYCQQGDALPWTFGGGTKVEIK | 11.8
DhVH3/DhVL1 (antibody, V domains shown, Humanized Clone D; constant regions from the vector, 293F cells; also called humanized Clone D, Dh VH3 + Dh VL1) VH: QVQLVQSGAEVKKPGASVKVSCKASGYSFTGYTMNWVRQAPGQGLEWMGLIIPYNGGISYNQKFKDRVTMTVDTSISTAYMELSRLRSDDTAVYYCASLITTAPRDSMDYWGQGTLVTVSS VL: DIQMTQSTSSLSASVGDRVTITCRASQDISNYLNWYQQKPGGAPKLLIYYTSKLHSGVPSRFSGSGSGTDYTLTISSLQQEDIATYYCQQGDALPWTFGGGTKVEIK | 9.09
DhVH1/DhVL2 (antibody, V domains shown, Humanized Clone D; constant regions from the vector, 293F cells; also called humanized Clone D, Dh VH1 + Dh VL2) VH: QVQLVQSGAEVKKPGASVKVSCKASGYSFTGYTMNWVKQSHGQGLEWIGLIIPYNGGISYNQKFKDRATLTVDTSSSTAYMELSRLRSDDTAVYYCASLITTAPRDSMDYWGQGTLVTVSS VL: DIQMTQSPSSLSASVGDRVTITCRASQDISNYLNWYQQKPGKAPKLLIYYTSKLHSGVPSRFSGSGSGTDFTLTISSLQPEDIATYYCQQGDALPWTFGGGTKVEIK | 12.4
DhVH2/DhVL1 (antibody, V domains shown, Humanized Clone D; constant regions from the vector, 293F cells; also called humanized Clone D, Dh VH2 + Dh VL1) VH: QVQLVQSGAEVKKPGASVKVSCKASGYSFTGYTMNWVKQAHGQGLEWMGLIIPYNGGISYNQKFKDRVTMTVDTSISTAYMELSRLRSDDTAVYYCASLITTAPRDSMDYWGQGTLVTVSS VL: DIQMTQSTSSLSASVGDRVTITCRASQDISNYLNWYQQKPGGAPKLLIYYTSKLHSGVPSRFSGSGSGTDYTLTISSLQQEDIATYYCQQGDALPWTFGGGTKVEIK | 1.27
DhVH-CDR graft/ DhVL-CDR graft (antibody, V domains shown, also called CDR-grafted humanized Clone D) VH: QVQLVQSGAEVKKPGASVKVSCKASGYSFTGYTMNWVRQAPGQGLEWMGLIIPYNGGISYNQKFKDRVTMTRDTSISTVYMELSRLRSDDTAVYYCASLITTAPRDSMDYWGQGTLVTVSS VL: DIQMTQSPSSLSASVGDRVTITCRASQDISNYLNWYQQKPGKAPKLLIYYTSKLHSGVPSRFSGSGSGTDFTFTISSLQPEDIATYYCQQGDALPWTFGGGTKVEIK | 10.3
DhVH1/DhVL1 (antibody, V domains shown, Humanized Clone D; constant regions (CH1-FC/CL) from the vector, 293F cells; also called humanized Clone D, Dh VH1 + Dh VL1) VH: QVQLVQSGAEVKKPGASVKVSCKASGYSFTGYTMNWVKQSHGQGLEWIGLIIPYNGGISYNQKFKDRATLTVDTSSSTAYMELSRLRSDDTAVYYCASLITTAPRDSMDYWGQGTLVTVSS VL: DIQMTQSTSSLSASVGDRVTITCRASQDISNYLNWYQQKPGGAPKLLIYYTSKLHSGVPSRFSGSGSGTDYTLTISSLQQEDIATYYCQQGDALPWTFGGGTKVEIK | 11.1
DhVH3/DhVL2 (antibody, V domains shown, Humanized Clone D; constant regions from the vector, 293F cells; also called humanized Clone D, Dh VH3 + Dh VL2) VH: QVQLVQSGAEVKKPGASVKVSCKASGYSFTGYTMNWVRQAPGQGLEWMGLIIPYNGGISYNQKFKDRVTMTVDTSISTAYMELSRLRSDDTAVYYCASLITTAPRDSMDYWGQGTLVTVSS VL: DIQMTQSPSSLSASVGDRVTITCRASQDISNYLNWYQQKPGKAPKLLIYYTSKLHSGVPSRFSGSGSGTDFTLTISSLQPEDIATYYCQQGDALPWTFGGGTKVEIK | 1.67
BhVH2/BhVL1 (antibody, V domains shown, Humanized Clone B; VH and VL cloned into vectors carrying constant regions (CH1-FC/CL), expressed in 293F cells; also called humanized Clone B, Bh VH2 + Bh VL1) VH: QGQLVQSGAEVKKPGASVKVSCKTSGFTFSSSYISWVRQAPGQGLEWMGWIYAGTGGTSYNQKFTGRVTMTVDTSTSTAYMELRSLRSDDTAVYYCARHEGKYWYFDVWGQGTTVTVSS VL: DIQMTQSPSSLSASVGDRVTITCSASSSVSYVHWYQQKPGKAPKPWIYDTSNLASGFPSRFSGSGSGTDYTLTISSLQPEDFATYYCHQRSSYPWTFGGGTKVEIK | 1.13
BhVH2/BhVL8 (antibody, V domains shown, Humanized Clone B; constant regions (CH1-FC/CL) from the vector, expressed in 293F cells; also called humanized Clone B, Bh VH2 + Bh VL8) VH: QGQLVQSGAEVKKPGASVKVSCKTSGFTFSSSYISWVRQAPGQGLEWMGWIYAGTGGTSYNQKFTGRVTMTVDTSTSTAYMELRSLRSDDTAVYYCARHEGKYWYFDVWGQGTTVTVSS VL: EIVMTQSPATLSVSPGERATLSCSASSSVSYVHWYQQKPGQAPRPWIYDTSNLASGFPARFSGSGSGTEYTLTISSLQSEDAAVYYCHQRSSYPWTFGGGTKVEIK | 1.18
BhVH3/BhVL3 (antibody, V domains shown, Humanized Clone B; constant regions (CH1-FC/CL) from the vector, expressed in 293F cells; also called humanized Clone B, Bh VH3 + Bh VL3) VH: QVQLVQSGAEVKKPGASVKVSCKTSGFTFSSSYISWVRQAPGQGLEWMGWIYAGTGGTSYNQKFTGRVTMTVDTSTSTAYMELRSLRSDDTAVYYCARHEGKYWYFDVWGQGTTVTVSS VL: DIQMTQSPSTLSASVGDRVTITCSASSSVSYVHWYQQKPGKAPKLLIYDTSNLASGVPSRFSGSGSGTEFTLTISSLQPDDFATYYCHQRSSYPWTFGGGTKVEIK | 1.29
Chimeric D (antibody, V domains shown, also called chimeric Clone D) VH: EVQLQQSGPELVKPGASMKISCKASGYSFTGYTMNWVKQSHGKNLEWIGLIIPYNGGISYNQKFKDKATLTVDKSSSTAYMELLSLTSEDSAVYYCASLITTAPRDSMDYWGQGTSVTVSS VL: DIQMTQTTSSLSASLGDRVTISCRASQDISNYLNWYQQKPDGSVKLLIYYTSKLHSGVPSRFSGSGSGTDYSLTISNLEQEDIATYFCQQGDALPWTFGGGTKLEIK | 3.68
ChVH3/ChVL3 (antibody, V domains shown, Humanized Clone C; constant regions (CH1-FC/CL) from the vector, expressed in 293F cells; also called humanized Clone C, Ch VH3 + Ch VL3) VH: QVQLVQSGAEVKKPGASVKVSCKASGFNIKDTYMHWVRQAPGQGLEWIGRIDPANGNTKYDPKFQGRVTITTDTSANTAYMELSSLRSEDTAVYYCARGLGRWFAYWGQGTTVTVSS VL: DIQMTQSPSSLSASVGDRVTITCQASQDVSNAVAWYQQKPGKAPKLLIYSASNLYTGVPSRFSGSGSGTDFTFTISSLQPEDIATYYCQQHDSTPLTFGQGTKLELK | 0.242

The remaining lines, values ahead:

Kd [nM] | Binder
0.942 | BhVH2/BhVL7 (antibody, V domains shown, Humanized Clone B; constant regions (CH1-FC/CL) from the vector, expressed in 293F cells; also called humanized Clone B, Bh VH2 + Bh VL7) VH: QGQLVQSGAEVKKPGASVKVSCKTSGFTFSSSYISWVRQAPGQGLEWMGWIYAGTGGTSYNQKFTGRVTMTVDTSTSTAYMELRSLRSDDTAVYYCARHEGKYWYFDVWGQGTTVTVSS VL: EIVMTQSPATLSVSPGERATLSCSASSSVSYVHWYQQKPGQAPRLLIYDTSNLASGIPARFSGSGSGTEFTLTISSLQSEDFAVYYCHQRSSYPWTFGGGTKVEIK
0.4 | BhVH5/BhVL7 (antibody, V domains shown, Humanized Clone B; constant regions (CH1-FC/CL) from the vector, expressed in 293F cells; also called humanized Clone B, Bh VH5 + Bh VL7) VH: QGQLVQSGAEVKKPGSSVKVSCKTSGFTFSSSYISWVRQAPGQGLEWMGWIYAGTGGTSYNQKFTGRVTITVDTSTSTAYMELSSLRSEDTAVYYCARHEGKYWYFDVWGQGTTVTVSS VL: EIVMTQSPATLSVSPGERATLSCSASSSVSYVHWYQQKPGQAPRLLIYDTSNLASGIPARFSGSGSGTEFTLTISSLQSEDFAVYYCHQRSSYPWTFGGGTKVEIK
0.619 | BhVH5/BhVL8 (antibody, V domains shown, Humanized Clone B; constant regions (CH1-FC/CL) from the vector, expressed in 293F cells; also called humanized Clone B, Bh VH5 + Bh VL8) VH: QGQLVQSGAEVKKPGSSVKVSCKTSGFTFSSSYISWVRQAPGQGLEWMGWIYAGTGGTSYNQKFTGRVTITVDTSTSTAYMELSSLRSEDTAVYYCARHEGKYWYFDVWGQGTTVTVSS VL: EIVMTQSPATLSVSPGERATLSCSASSSVSYVHWYQQKPGQAPRPWIYDTSNLASGFPARFSGSGSGTEYTLTISSLQSEDAAVYYCHQRSSYPWTFGGGTKVEIK
0.329 | ChVH2/ChVL3 (antibody, V domains shown, Humanized Clone C; constant regions (CH1-FC/CL) from the vector, expressed in 293F cells; also called humanized Clone C, Ch VH2 + Ch VL3) VH: QVQLVQSGAEVKKPGASVKVSCKASGFNIKDTYMHWVRQAPGQGLEWIGRIDPANGNTKYDPKFQGRATITTDTSTNTAYLELSSLRSEDTAVYYCARGLGRWFAYWGQGTTVTVSS VL: DIQMTQSPSSLSASVGDRVTITCQASQDVSNAVAWYQQKPGKAPKLLIYSASNLYTGVPSRFSGSGSGTDFTFTISSLQPEDIATYYCQQHDSTPLTFGQGTKLELK
0.201 | ChVH2/ChVL2 (antibody, V domains shown, Humanized Clone C; constant regions (CH1-FC/CL) from the vector, expressed in 293F cells; also called humanized Clone C, Ch VH2 + Ch VL2) VH: QVQLVQSGAEVKKPGASVKVSCKASGFNIKDTYMHWVRQAPGQGLEWIGRIDPANGNTKYDPKFQGRATITTDTSTNTAYLELSSLRSEDTAVYYCARGLGRWFAYWGQGTTVTVSS VL: DIQMTQSPSSLSASVGDRVTITCKASQDVSNAVAWYQQKPGKAPKLLIYSASNRYTGVPSRFSGSGSGTDFTFTISSLQPEDIATYYCQQHDSTPLTFGQGTKLELK
0.255 | ChVH1/ChVL1 (antibody, V domains shown, Humanized Clone C; constant regions (CH1-FC/CL) from the vector, expressed in 293F cells; also called humanized Clone C, Ch VH1 + Ch VL1) VH: QVQLVQSGAEVKKPGASVKLSCTASGFNIKDTYMHWVKQRPGQGLEWIGRIDPANGNTKYDPKFQGKATITTDTSTNTAYLELSSLRSEDTAVYYCARGLGRWFAYWGQGTTVTVSS VL: DIQMTQSPSSLSASVGDRVTITCKASQDVSNAVAWYQQKPGKAPKLLIYSASNRYTGVPDRFSGSGSGTDFTFTISSLQPEDIATYYCQQHDSTPLTFGQGTKLELK
0.177 | ChVH4/ChVL3 (antibody, V domains shown, Humanized Clone C; constant regions (CH1-FC/CL) from the vector, expressed in 293F cells; also called humanized Clone C, Ch VH4 + Ch VL3) VH: QVQLVQSGAEVKKPGASVKVSCKASGFNIKDTYMHWVRQAPGQGLEWIGRIDPANGNTKYDPKFQGRVTITTDTSASTAYLELSSLRSEDTAVYYCARGLGRWFAYWGQGTTVTVSS VL: DIQMTQSPSSLSASVGDRVTITCQASQDVSNAVAWYQQKPGKAPKLLIYSASNLYTGVPSRFSGSGSGTDFTFTISSLQPEDIATYYCQQHDSTPLTFGQGTKLELK
0.16 | ChVH3/ChVL1 (antibody, V domains shown, Humanized Clone C; constant regions (CH1-FC/CL) from the vector, expressed in 293F cells; also called humanized Clone C, Ch VH3 + Ch VL1) VH: QVQLVQSGAEVKKPGASVKVSCKASGFNIKDTYMHWVRQAPGQGLEWIGRIDPANGNTKYDPKFQGRVTITTDTSANTAYMELSSLRSEDTAVYYCARGLGRWFAYWGQGTTVTVSS VL: DIQMTQSPSSLSASVGDRVTITCKASQDVSNAVAWYQQKPGKAPKLLIYSASNRYTGVPDRFSGSGSGTDFTFTISSLQPEDIATYYCQQHDSTPLTFGQGTKLELK
1.17 | ChVH5/ChVL1 (antibody, V domains shown, Humanized Clone C; constant regions (CH1-FC/CL) from the vector, expressed in 293F cells; also called humanized Clone C, Ch VH5 + Ch VL1) VH: QVQLVQSGAEVKKPGASVKVSCKASGFNIKDTYMHWVRQAPGQRLEWIGRIDPANGNTKYSQKFQGRVTITRDTSASTAYMELSSLRSEDTAVYYCARGLGRWFAYWGQGTTVTVSS VL: DIQMTQSPSSLSASVGDRVTITCKASQDVSNAVAWYQQKPGKAPKLLIYSASNRYTGVPDRFSGSGSGTDFTFTISSLQPEDIATYYCQQHDSTPLTFGQGTKLELK
